T1: recombinant human CD123-Fc (human, UniProt P26951 19-305)
T1 construct: not shown: Fc part of CD123-Fc
T1 sequence: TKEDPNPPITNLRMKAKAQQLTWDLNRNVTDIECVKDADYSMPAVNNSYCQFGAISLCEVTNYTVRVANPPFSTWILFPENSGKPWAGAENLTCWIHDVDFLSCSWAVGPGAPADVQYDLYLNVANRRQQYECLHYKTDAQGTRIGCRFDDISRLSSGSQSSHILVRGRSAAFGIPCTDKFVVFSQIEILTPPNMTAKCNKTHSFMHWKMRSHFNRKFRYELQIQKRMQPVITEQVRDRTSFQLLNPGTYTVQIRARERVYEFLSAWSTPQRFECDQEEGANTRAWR


Biological target: T1, recombinant human CD123-Fc
Experiment: phage ELISA, captured CD123-Fc
Experimental: Individual colonies containing phagemid from BCMA panning output were picked and phage were rescued in 96-well format using VCSM13 helper phage following standard protocols. To assay target binding by ELISA, 96-well plates were coated with 1.3 microg/ml goat anti-human IgG1-Fc antibody followed by incubation with 5 nM of recombinant human target (BCMA-Fc, CD123-Fc, AFP, or AFP123) or IgG1-Fc. 50 microl of rescued phage diluted 5× in ELISA blocking buffer was then added to each well. Binding was detected using an HRP-conjugated anti-M13 antibody and the ELISA ratio for each sequence is reported as the absorbance at 450 nm for target (i.e., BCMA-Fc, CD123-Fc, AFP, or AFP123) divided by that for IgG1-Fc averaged across all screened wells containing that clone.

Binder	ELISA_avg
SEQ ID NO: 377 (designed binder, D domain, on phage) MGSWVEFWDRLWAIDYRLFALGGSEAELAAFEKEIAAFESELQAYKGKGNPEVEALRDEAAWIREELQAYRHN	3.6 ratio A450 target/IgG1-Fc
SEQ ID NO: 392 (designed binder, D domain, on phage) MGSWTEFWERLNAIDERLFALGGSEAELAAFEKEIAAFESELQAYKGKGNPEVEWLRLYAAEIRSELQAYRHN	4 ratio A450 target/IgG1-Fc
SEQ ID NO: 433 (designed binder, D domain, on phage) MGSWNEFEDRLDAIWWRLFALGGSEAELAAFEKEIAAFESELQAYKGKGNPEVEALRVEAAFIRTMLQAYRHN	5.1 ratio A450 target/IgG1-Fc
SEQ ID NO: 384 (designed binder, D domain, on phage) MGSWDEFEERLFAIDERLWALGGSEAELAAFEKEIAAFESELQAYKGKGNPEVEALRYLAADIREELQAYRHN	5 ratio A450 target/IgG1-Fc
SEQ ID NO: 398 (designed binder, D domain, on phage) MGSWSEFEHRLEAIESRLFALGGSEAELAAFEKEIAAFESELQAYKGKGNPEVEDLRSEAAWIREQLQAYRHN	7.6 ratio A450 target/IgG1-Fc
SEQ ID NO: 391 (designed binder, D domain, on phage) MGSWSEFEDRLWAIDQRLFALGGSEAELAAFEKEIAAFESELQAYKGKGNPEVEWLRAYAADIRWELQAYRHN	4.2 ratio A450 target/IgG1-Fc
SEQ ID NO: 432 (designed binder, D domain, on phage) MGSWFEFYERLDAINWRLFALGGSEAELAAFEKEIAAFESELQAYKGKGNPEVEALRGEAAAIREDLQAYRHN	3 ratio A450 target/IgG1-Fc
SEQ ID NO: 396 (designed binder, D domain, on phage) MGSWVEFEERLEAIEERLFALGGSEAELAAFEKEIAAFESELQAYKGKGNPEVEWLRDDAANIRHWLQAYRHN	3.8 ratio A450 target/IgG1-Fc
SEQ ID NO: 390 (designed binder, D domain, on phage) MGSWSEFYDRLWAIEERLFALGGSEAELAAFEKEIAAFESELQAYKGKGNPEVEYLRYYAAEIREELQAYRHN	17 ratio A450 target/IgG1-Fc
SEQ ID NO: 378 (designed binder, D domain, on phage) MGSWVEFVDRLWAIDERLDALGGSEAELAAFEKEIAAFESELQAYKGKGNPEVEFLRTWAAWIREDLQAYRHN	3.2 ratio A450 target/IgG1-Fc
SEQ ID NO: 394 (designed binder, D domain, on phage) MGSWWEFENRLWAIEERLEALGGSEAELAAFEKEIAAFESELQAYKGKGNPEVEMLRNYAAEIRWELQAYRHN	5.6 ratio A450 target/IgG1-Fc
SEQ ID NO: 395 (designed binder, D domain, on phage) MGSWVEFEERLWAIDERLGALGGSEAELAAFEKEIAAFESELQAYKGKGNPEVEWLRDWAADIRWWLQAYRHN	4.1 ratio A450 target/IgG1-Fc
SEQ ID NO: 385 (designed binder, D domain, on phage) MGSWEEFWERLDAIDTRLWALGGSEAELAAFEKEIAAFESELQAYKGKGNPEVEVLRNDAADIREPLQAYRHN	6.8 ratio A450 target/IgG1-Fc
SEQ ID NO: 388 (designed binder, D domain, on phage) MGSWTEFYNRLDAIDQRLWALGGSEAELAAFEKEIAAFESELQAYKGKGNPEVEMLREYAADIRTDLQAYRHN	3.3 ratio A450 target/IgG1-Fc
SEQ ID NO: 386 (designed binder, D domain, on phage) MGSWMEFWERLEAIDMRLWALGGSEAELAAFEKEIAAFESELQAYKGKGNPEVEYLRDDAAVIRDDLQAYRHN	4.2 ratio A450 target/IgG1-Fc
SEQ ID NO: 362 (designed binder, D domain, on phage) MGSWVEFDQRLGAIWDRLVALGGSEAELAAFEKEIAAFESELQAYKGKGNPEVEHLRQGAAVIRDDLQAYRHN	5.3 ratio A450 target/IgG1-Fc
SEQ ID NO: 439 (designed binder, D domain, on phage) MGSWQWFKDDLAYIKETLEALGGSEAELALFEDMIADFEFELQWYKGKGNPEVEALRKEAAAIRDELQAYRHN	6.3 ratio A450 target/IgG1-Fc
SEQ ID NO: 444 (designed binder, D domain, on phage) MGSWYWFKDDLAEIKGLLEALGGSEAELAEFEDEIAVFEQELQEYKGKGNPEVEALRKEAAAIRDELQAYRHN	10.4 ratio A450 target/IgG1-Fc
SEQ ID NO: 387 (designed binder, D domain, on phage) MGSWLEFMWRLDAIDERLWALGGSEAELAAFEKEIAAFESELQAYKGKGNPEVELLREMAAAIRDDLQAYRHN	5.1 ratio A450 target/IgG1-Fc
SEQ ID NO: 434 (designed binder, D domain, on phage) MGSWFYFKDDLADINYMLEALGGSEAELAMFEDDIAGFELTLLKYKGKGNPEVEALRKEAAAIRDELQAYRHN	3.7 ratio A450 target/IgG1-Fc
SEQ ID NO: 437 (designed binder, D domain, on phage) MGSWWLFKDDLAEIKYWLEALGGSEAELAFFEDDIAEFERGLQIYKGKGNPEVEALRKEAAAIRDELQAYRHN	3.3 ratio A450 target/IgG1-Fc

Binder	ELISA_avg
SEQ ID NO: 440 (designed binder, D domain, on phage) MGSWILFKDDLAWIKETLEALGGSEAELAFFEDNIADFEEQLQGYKGKGNPEVEALRKEAAAIRDELQAYRHN	6 ratio A450 target/IgG1-Fc
SEQ ID NO: 438 (designed binder, D domain, on phage) MGSWYEFKDDLAEIKEWLEALGGSEAELAFFELDIADFEWLLQLYKGKGNPEVEALRKEAAAIRDELQAYRHN	3.8 ratio A450 target/IgG1-Fc
SEQ ID NO: 352 (designed binder, D domain, on phage) MGSWDEFGRRLYAIEWRLYALGGSEAELAAFEKEIAAFESELQAYKGKGNPEVEKLREIAAVIRSNLQAYRHN	5.8 ratio A450 target/IgG1-Fc
SEQ ID NO: 361 (designed binder, D domain, on phage) MGSWDEFEQRLIAIEERLFALGGSEAELAAFEKEIAAFESELQAYKGKGNPEVEWLREEAAVIRKYLQAYRHN	5.9 ratio A450 target/IgG1-Fc
SEQ ID NO: 441 (designed binder, D domain, on phage) MGSWIVFKDDLADIKRWLEALGGSEAELAMFEDEIADFEWQLQDYKGKGNPEVEALRKEAAAIRDELQAYRHN	3.9 ratio A450 target/IgG1-Fc
SEQ ID NO: 365 (designed binder, D domain, on phage) MGSWHEFDQRLWAIEERLWALGGSEAELAAFEKEIAAFESELQAYKGKGNPEVETLRLYAALIRHDLQAYRHN	3.3 ratio A450 target/IgG1-Fc
SEQ ID NO: 373 (designed binder, D domain, on phage) MGSWFEFNYRLGAIEDRLWALGGSEAELAAFEKEIAAFESELQAYKGKGNPEVEMLRQIAAEIREFLQAYRHN	6.9 ratio A450 target/IgG1-Fc
SEQ ID NO: 374 (designed binder, D domain, on phage) MGSWEEFFTRLDAINERLEALGGSEAELAAFEKEIAAFESELQAYKGKGNPEVEMLRYEAAEIRHMLQAYRHN	3.9 ratio A450 target/IgG1-Fc
SEQ ID NO: 435 (designed binder, D domain, on phage) MGSWHFFKDDLAWIKNELEALGGSEAELAMFEDDIAMFETMLQSYKGKGNPEVEALRKEAAAIRDELQAYRHN	3.2 ratio A450 target/IgG1-Fc
SEQ ID NO: 442 (designed binder, D domain, on phage) MGSWGHFKQDLAWIKDTLEALGGSEAELAFFEDDIAMFEMELQDYKGKGNPEVEALRKEAAAIRDELQAYRHN	4.9 ratio A450 target/IgG1-Fc
SEQ ID NO: 436 (designed binder, D domain, on phage) MGSWHWFKTDLADIKEELEALGGSEAELAMFEDDIAEFEEFLQMYKGKGNPEVEALRKEAAAIRDELQAYRHN	3.5 ratio A450 target/IgG1-Fc
SEQ ID NO: 375 (designed binder, D domain, on phage) MGSWYEFSNRLDAIGERLWALGGSEAELAAFEKEIAAFESELQAYKGKGNPEVEILRHQAAEIRWFLQAYRHN	3.9 ratio A450 target/IgG1-Fc
SEQ ID NO: 393 (designed binder, D domain, on phage) MGSWWEFEERLWAIDYRLHALGGSEAELAAFEKEIAAFESELQAYKGKGNPEVEMLRSWAAEIRALLQAYRHN	4.1 ratio A450 target/IgG1-Fc
SEQ ID NO: 366 (designed binder, D domain, on phage) MGSWVEFWDRLDAIEGRLWALGGSEAELAAFEKEIAAFESELQAYKGKGNPEVEDLRWLAAEIRADLQAYRHN	3.5 ratio A450 target/IgG1-Fc
SEQ ID NO: 399 (designed binder, D domain, on phage) MGSWFEFWERLDAIEWRLWALGGSEAELAAFEKEIAAFESELQAYKGKGNPEVEELRSTAADIRRYLQAYRHN	3.4 ratio A450 target/IgG1-Fc
SEQ ID NO: 376 (designed binder, D domain, on phage) MGSWYEFWGRLDAIEERLWALGGSEAELAAFEKEIAAFESELQAYKGRGNPEVEMLREDAAEIRGQLQAYRHN	5.4 ratio A450 target/IgG1-Fc
SEQ ID NO: 401 (designed binder, D domain, on phage) MGSWQEFTMRLDAIYNRLETLGGSEAELAAFEKEIAAFESELQAYKGKGNPEVEWLRQSAANIRSELQAYRHN	13.7 ratio A450 target/IgG1-Fc
SEQ ID NO: 389 (designed binder, D domain, on phage) MGSWWEFIWRLEAIEQRLWALGGSEAELAAFEKEIAAFESELQAYKGKGNPEVEVLRSRAADIRTDLQAYRHN	4 ratio A450 target/IgG1-Fc
SEQ ID NO: 443 (designed binder, D domain, on phage) MGSWGYFKDDLAWIKGELEALGGSEAELAEFEWFIAVFEEDLQVYKGKGNPEVEALRKEAAAIRDELQAYRHN	4.5 ratio A450 target/IgG1-Fc
SEQ ID NO: 400 (designed binder, D domain, on phage) MGSWFEFWGRLEAIESRLKALGGSEAELAAFEKEIAAFESELQAYKGKGNPEVEELREHAAWIRAYLQAYRHN	4.9 ratio A450 target/IgG1-Fc

Reference: patent publication US20230125550A1 (ARCELLX, published 2023)
